Sequences and labels used below:
B1: OATP3A1_V1 (Homo sapiens; E294D) (protein)
chain: MQGKKPGGSSGGGRSGELQGDEAQRNKKKKKKVSCFSNIKIFLVSECALMLAQGTVGAYLVSVLTTLERRFNLQSADVGVIASSFEIGNLALILFVSYFGARGHRPRLIGCGGIVMALGALLSALPEFLTHQYKYEAGEIRWGAEGRDVCAANGSGGDEGPDPDLICRNRTATNMMYLLLIGAQVLLGIGATPVQPLGVSYIDDHVRRKDSSLYIGILFTMLVFGPACGFILGSFCTKIYVDAVFIDTSNLDITPDDPRWIGAWWGGFLLCGALLFFSSLLMFGFPQSLPPHSDPAMESEQAMLSEREYERPKPSNGVLRHPLEPDSSASCFQQLRVIPKVTKHLLSNPVFTCIILAACMEIAVVAGFAAFLGKYLEQQFNLTTSSANQLLGMTAIPCACLGIFLGGLLVKKLSLSALGAIRMAMLVNLVSTACYVSFLFLGCDTGPVAGVTVPYGNSTAPGSALDPYSPCNNNCECQTDSFTPVCGADGITYLSACFAGCNSTNLTGCACLTTVPAENATVVPGKCPSPGCQEAFLTFLCVMCICSLIGAMAQTPSVIILIRTVSPELKSYALGVLFLLLRLLGFIPPPLIFGAGIDSTCLFWSTFCGEQGACVLYDNVVYRYLYVSIAIALKSFAFILYTTTWQCLRKNYKRYIKNHEGGLSTSEFFASTLTLDNLGRDPVPANQTHRTKFIYNLEDHEWCENMESVL
notes: full-length ORF from brain RNA, 710 residues, E294D polymorphism (rs1517618), untagged, lentiviral overexpression in HEK-293
B2: OATP3A1_V2 (Homo sapiens; E294D) (protein)
chain: MQGKKPGGSSGGGRSGELQGDEAQRNKKKKKKVSCFSNIKIFLVSECALMLAQGTVGAYLVSVLTTLERRFNLQSADVGVIASSFEIGNLALILFVSYFGARGHRPRLIGCGGIVMALGALLSALPEFLTHQYKYEAGEIRWGAEGRDVCAANGSGGDEGPDPDLICRNRTATNMMYLLLIGAQVLLGIGATPVQPLGVSYIDDHVRRKDSSLYIGILFTMLVFGPACGFILGSFCTKIYVDAVFIDTSNLDITPDDPRWIGAWWGGFLLCGALLFFSSLLMFGFPQSLPPHSDPAMESEQAMLSEREYERPKPSNGVLRHPLEPDSSASCFQQLRVIPKVTKHLLSNPVFTCIILAACMEIAVVAGFAAFLGKYLEQQFNLTTSSANQLLGMTAIPCACLGIFLGGLLVKKLSLSALGAIRMAMLVNLVSTACYVSFLFLGCDTGPVAGVTVPYGNSTAPGSALDPYSPCNNNCECQTDSFTPVCGADGITYLSACFAGCNSTNLTGCACLTTVPAENATVVPGKCPSPGCQEAFLTFLCVMCICSLIGAMAQTPSVIILIRTVSPELKSYALGVLFLLLRLLGFIPPPLIFGAGIDSTCLFWSTFCGEQGACVLYDNVVYRYLYVSIAIALKSFAFILYTTTWQCLRKNYKRYIKNHEGGLSTSTEYQDIETEKTCPESHSPSEDSFVRS
notes: full-length ORF from brain RNA, 692 residues, E294D polymorphism (rs1517618), untagged, lentiviral overexpression in HEK-293
B3: OATP3A1_V3 (Homo sapiens; E294D) (protein)
chain: MQGKKPGGSSGGGRSGELQGDEAQRNKKKKKKVSCFSNIKIFLVSECALMLAQGTVGAYLVSVLTTLERRFNLQSADVGVIASSFEIGNLALILFVSYFGARGHRPRLIGCGGIVMALGALLSALPEFLTHQYKYEAGEIRWGAEGRDVCAANGSGGDEGPDPDLICRNRTATNMMYLLLIGAQVLLGIGATPVQPLGVSYIDDHVRRKDSSLYIGILFTMLVFGPACGFILGSFCTKIYVDAVFIDTSNLDITPDDPRWIGAWWGGFLLCGALLFFSSLLMFGFPQSLPPHSDPAMESEQAMLSEREYERPKPSNGVLRHPLEPDSSASCFQQLRVIPKVTKHLLSNPVFTCIILAACMEIAVVAGFAAFLGKYLEQQFNLTTSSANQLLGMTAIPCACLGIFLGGLLVKKLSLSALGAIRMAMLVNLVSTACYVSFLFLGCDTGPVAGVTVPYGNSTAPGSALDPYSPCNNNCECQTDSFTPVCGADGITYLSACFAGCNSTNLTGCACLTTVPAENATVVPGKCPSPGCQEAFLTFLCVMCICSLIGAMAQTPSVIILIRTVSPELKSYALGVLFLLLRLLGFIPPPLIFGAGIDSTCLFWSTFCGEQGACVLYDNVVYRYLYVSIAIALKSFAFILYTTTWQCLRKNYKRYIKNHEGGLSTTSEPDRIQNKERMTSCGRVLEATCAAGPQSLL
notes: full-length ORF from brain RNA, 697 residues, E294D polymorphism (rs1517618), untagged, lentiviral overexpression in HEK-293; C-terminal peptide (C)VLEATCAAGPQSLL

Substrate in this data set: CCN(CC)c1ccc2cc(/C=C/c3cc[n+](CCCN=[N+]=[N-])cc3S(=O)(=O)[O-])c(=O)oc2c1
Put plainly: fluorescent dye uptake by flow cytometry, HEK-293 overexpressing cells. The data set is classed as cell-based, Homo sapiens. As to conditions: pH 7.4, 37 °C, 10 min, 5-400 µM ACPS, mock-subtracted. On the technique in general: Flow cytometry measures light scatter and fluorescence of single cells or particles in a stream.
In the case of B1, the Michaelis constant (Km) amounted to 37.7 µM. The figure for B2 is 31.7 µM. The figure for B3 is 35 µM.

Usually Km stands for the concentration of substrate that gives half-maximal velocity.

Source of the values: publication PMC9479004, “Cloning and characterization of a novel functional organic anion transporting polypeptide 3A1 isoform highly expressed in the human brain and testis” (Frontiers in Pharmacology, 2022).
